Assay results as given in publication PMC6553756 (PLoS ONE, 2019).

How the values were obtained:
recombinant mouse PrP = biological target: T1, recombinant mouse PrP (Mus musculus, UniProt P04925); assay: ELISA
T1 construct: also called rMoPrP

[1] = biological target: abnormal isoform prion protein (PrP^Sc) in the brain of Chandler prion-infected mice (Mus musculus, brain, Chandler prion …, UniProt P04925); assay: immunostaining of cells or tissue; conditions: one partner purified
[2] = biological target: T2, cellular prion protein (PrP^C) expressed in the brain of mock-infected mice (Mus musculus, mouse strain not shown, UniProt P04925); assay: immunostaining of cells or tissue; conditions: one partner purified
T2 construct: source: endogenous, frozen brain sections of mock-infected mice
T2 sequence (P04925 23-230): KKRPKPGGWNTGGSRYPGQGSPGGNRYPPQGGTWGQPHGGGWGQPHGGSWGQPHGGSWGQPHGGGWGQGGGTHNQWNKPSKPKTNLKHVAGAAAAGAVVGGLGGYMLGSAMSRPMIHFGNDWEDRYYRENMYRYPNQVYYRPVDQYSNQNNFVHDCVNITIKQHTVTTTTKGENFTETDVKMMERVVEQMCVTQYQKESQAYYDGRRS

T1 sequence (P04925 23-230): as above
Chain of abnormal isoform prion protein (PrP^Sc) in the brain of Chandler prion-infected mice (P04925 23-230): as above

Binder	binding result (recombinant mouse PrP; both partners purified)	binding result [1]	binding result [2]	binding result (recombinant mouse PrP; one partner purified)
authentic anti-PrP monoclonal antibody 44B1 (IgG-44B1) (antibody, V domains shown, also called mAb 44B1; source: hybridoma, purified IgG; copies: 2 + 2) VH: DVKLVESGEGLVKPGGSLKLSCAASGITFSRYAMSWVRQTPEKRLEWVAYISSGGDYINYADTVKGRFTISRDNARNTLYLQMSSLKSEDTAMYYCTRVTPYWYFDVWGTGTTVTVSS VL: DIVLTQSPASLGVSLGQRATISCRASESVDSYGNSFMHWYQQKPGQPPKVLIYRASNRESGIPARFSGSGSRTDFTLTINPVEADDVATYYCQQSNEDPYTFGGGTKLEIK	binds	binds	binds	
recombinant Fab of mAb 44B1 (rFab-44B1) (Fab, V domains shown, source: HEK293T, transfected (IRES plasmid), culture supernatant) VH: DVKLVESGEGLVKPGGSLKLSCAASGITFSRYAMSWVRQTPEKRLEWVAYISSGGDYINYADTVKGRFTISRDNARNTLYLQMSSLKSEDTAMYYCTRVTPYWYFDVWGTGTTVTVSS VL: DIVLTQSPASLGVSLGQRATISCRASESVDSYGNSFMHWYQQKPGQPPKVLIYRASNRESGIPARFSGSGSRTDFTLTINPVEADDVATYYCQQSNEDPYTFGGGTKLEIK				binds
